The values that follow come from PMC9841435, “Structural basis of DNA polymerase θ mediated DNA end joining” (Nucleic Acids Research, 2022).

Read-outs that look alike come from different tables or passages of the source.

As a reminder, the Km is the substrate concentration at which the rate is half of its maximum. As usually defined, the Kd is the concentration at which binding is half-saturated.

The subject of series [1] is T1, LcPol θ-pol.
T1 construct: gene polq; C-terminal polymerase domain (pseudo-exonuclease, thumb, finger, palm), residues 1950-2714 of 2714; synthetic gene in pETsumo2; His6-SUMO tag removed by SENP2; E. coli Rosetta2 (DE3); mainly monomeric
As to the kind of experiment: steady-state primer extension, denaturing PAGE of 6-FAM hairpin DNA. Particulars: 1 μM hairpin DNA HP [3,9], 1 nM enzyme, 5 mM MgCl2, 100 mM KCl, pH 7.6, 37 °C; read-out: KM, dATP. The class given is biochemical, Lates calcarifer.

The test system of series [2] is T1, LcPol θ-pol. Described as above. The class given is biochemical, Lates calcarifer. Particulars: Δloop2_b (ΔV2405–R2448); 1 μM hairpin DNA HP [3,9], 200 nM enzyme, 5 mM MgCl2, 100 mM KCl, pH 7.6, 37 °C; read-out: KM, dATP.
The target of series [3] is LcPol theta-pol K2299A/K2300A/R2306A/R2307A (Lates calcarifer, UniProt PDB:8EFK_1 1-864, K449A;K450A;R456A;R457A). As to the kind of experiment: EMSA; 2.5 mM EDTA, no dNTP; EMSA: 10 nM HP [3,9], 25 mM HEPES pH 8.0, 100 mM KCl, 3 mM DTT, 100 ug/ml BSA, 10% glycerol, 2.5 mM EDTA, 0.01% NP40, on ice 20 min; 6% native PAGE, Tris-glycine; Hill fit. Particulars: protein: recombinant; tags: His6-SUMO, removed by SENP2; label: 5' 6-FAM; hairpin, 3-bp stem, 9-nt dT loop, 5' overhang 8 nt. Background: In EMSA bound probe runs differently from free probe, usually more slowly.
LcPol theta-pol K2299A/K2300A/R2306A/R2307A, sequence (chain, as listed by the source with the stated changes): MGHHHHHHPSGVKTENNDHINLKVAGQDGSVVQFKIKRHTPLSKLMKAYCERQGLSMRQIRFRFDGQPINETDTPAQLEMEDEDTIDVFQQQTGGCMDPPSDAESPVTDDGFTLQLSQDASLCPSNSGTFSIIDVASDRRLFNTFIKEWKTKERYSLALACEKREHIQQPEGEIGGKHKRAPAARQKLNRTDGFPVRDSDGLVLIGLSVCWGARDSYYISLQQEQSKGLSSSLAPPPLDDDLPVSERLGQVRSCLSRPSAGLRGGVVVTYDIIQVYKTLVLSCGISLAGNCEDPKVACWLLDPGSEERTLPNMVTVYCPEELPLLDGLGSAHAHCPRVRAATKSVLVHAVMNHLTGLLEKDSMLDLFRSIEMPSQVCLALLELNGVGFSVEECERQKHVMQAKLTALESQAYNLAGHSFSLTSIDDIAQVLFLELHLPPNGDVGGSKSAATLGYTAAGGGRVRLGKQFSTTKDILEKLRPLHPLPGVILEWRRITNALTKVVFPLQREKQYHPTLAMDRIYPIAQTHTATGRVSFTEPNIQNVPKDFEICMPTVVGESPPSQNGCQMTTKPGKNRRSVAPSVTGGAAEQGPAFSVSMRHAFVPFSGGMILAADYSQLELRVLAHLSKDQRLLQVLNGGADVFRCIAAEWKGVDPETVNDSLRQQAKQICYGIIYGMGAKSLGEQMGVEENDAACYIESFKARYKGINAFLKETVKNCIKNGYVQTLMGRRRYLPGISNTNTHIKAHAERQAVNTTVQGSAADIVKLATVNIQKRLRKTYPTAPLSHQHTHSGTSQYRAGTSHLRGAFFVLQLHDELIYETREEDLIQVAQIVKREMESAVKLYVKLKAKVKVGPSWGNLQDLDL

The next series has as its target LcPol theta-pol Δloop1 (Lates calcarifer, UniProt PDB:8EFK_1 1-864, del443-461). The description is as above. Particulars: protein: recombinant; tags: His6-SUMO, removed by SENP2; label: 5' 6-FAM; hairpin, 3-bp stem, 9-nt dT loop, 5' overhang 8 nt.
For series [4], the target named is T2, LcPol theta-pol WT (Lates calcarifer, UniProt PDB:8EFK_1 1-864). The description is as above. The settings on record: protein: recombinant; tags: His6-SUMO, removed by SENP2; label: 5' 6-FAM; hairpin, 3-bp stem, 9-nt dT loop, 5' overhang 8 nt.
T2 sequence (chain, as listed by the source): as the sequence (chain, as listed by the source with the stated changes) above, with A449K, A450K, A456R, A457R counted along it
For series [5], the target named is LcPol theta-pol K2299A/K2300A (Lates calcarifer, UniProt PDB:8EFK_1 1-864, K449A;K450A). As to the kind of experiment: EMSA; 2.5 mM EDTA; affinity similar to WT; EMSA: 10 nM HP [3,9], 25 mM HEPES pH 8.0, 100 mM KCl, 3 mM DTT, 100 ug/ml BSA, 10% glycerol, 2.5 mM EDTA, 0.01% NP40, on ice 20 min; 6% native PAGE, Tris-glycine; Hill fit. The settings on record: protein: recombinant; tags: His6-SUMO, removed by SENP2; label: 5' 6-FAM; hairpin, 3-bp stem, 9-nt dT loop, 5' overhang 8 nt.
LcPol theta-pol K2299A/K2300A, sequence (chain, as listed by the source K449A;K450A | K2299A K2300A K2299A K2300A): as the sequence (chain, as listed by the source with the stated changes) above, with A456R, A457R counted along it

Series [6] deals with LcPol theta-pol R2306A/R2307A (Lates calcarifer, UniProt PDB:8EFK_1 1-864, R456A;R457A). Described as above. Particulars: protein: recombinant; tags: His6-SUMO, removed by SENP2; label: 5' 6-FAM; hairpin, 3-bp stem, 9-nt dT loop, 5' overhang 8 nt.
LcPol theta-pol R2306A/R2307A, sequence (chain, as listed by the source R456A;R457A | R2306A R2307A R2306A R2307A): as the sequence (chain, as listed by the source with the stated changes) above, with A449K, A450K counted along it
The next series deals with LcPol theta-pol Δloop2_a (Lates calcarifer, UniProt PDB:8EFK_1 1-864, del552-591). As to the kind of experiment: EMSA; 2.5 mM EDTA; Kd comparable to WT; EMSA: 10 nM HP [3,9], 25 mM HEPES pH 8.0, 100 mM KCl, 3 mM DTT, 100 ug/ml BSA, 10% glycerol, 2.5 mM EDTA, 0.01% NP40, on ice 20 min; 6% native PAGE, Tris-glycine; Hill fit. Particulars: protein: recombinant; tags: His6-SUMO, removed by SENP2; label: 5' 6-FAM; hairpin, 3-bp stem, 9-nt dT loop, 5' overhang 8 nt.
LcPol theta-pol Δloop2_a, sequence (chain, as listed by the source del552-591 | mutant): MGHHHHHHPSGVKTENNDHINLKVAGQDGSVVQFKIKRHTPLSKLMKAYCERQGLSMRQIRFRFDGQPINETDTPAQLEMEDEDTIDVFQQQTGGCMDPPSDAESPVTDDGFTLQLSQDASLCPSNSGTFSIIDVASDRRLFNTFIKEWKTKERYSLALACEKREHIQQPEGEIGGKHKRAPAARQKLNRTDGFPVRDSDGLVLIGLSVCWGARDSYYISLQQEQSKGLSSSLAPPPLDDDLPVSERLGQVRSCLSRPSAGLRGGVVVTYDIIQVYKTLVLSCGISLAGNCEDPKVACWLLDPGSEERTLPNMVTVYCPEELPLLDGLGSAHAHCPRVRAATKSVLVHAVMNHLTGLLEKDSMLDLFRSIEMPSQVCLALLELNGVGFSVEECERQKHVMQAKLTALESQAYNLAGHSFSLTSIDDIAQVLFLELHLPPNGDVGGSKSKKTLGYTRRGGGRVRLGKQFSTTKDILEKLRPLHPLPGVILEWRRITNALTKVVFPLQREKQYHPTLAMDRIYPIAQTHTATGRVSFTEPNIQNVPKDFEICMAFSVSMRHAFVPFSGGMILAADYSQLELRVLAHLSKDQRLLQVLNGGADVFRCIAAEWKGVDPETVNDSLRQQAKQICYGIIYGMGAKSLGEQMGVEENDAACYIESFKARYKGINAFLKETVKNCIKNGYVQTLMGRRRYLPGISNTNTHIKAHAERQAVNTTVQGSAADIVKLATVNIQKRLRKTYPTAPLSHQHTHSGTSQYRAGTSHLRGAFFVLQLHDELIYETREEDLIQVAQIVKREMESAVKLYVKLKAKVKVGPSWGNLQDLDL

A further series concerns the target LcPol theta-pol R2448A (Lates calcarifer, UniProt PDB:8EFK_1 1-864, R598A). Described as above. Particulars: protein: recombinant; tags: His6-SUMO, removed by SENP2; label: 5' 6-FAM; hairpin, 3-bp stem, 9-nt dT loop, 5' overhang 8 nt.
A further series deals with LcPol theta-pol Δloop2_b (Lates calcarifer, UniProt PDB:8EFK_1 1-864, del555-598). The description is as above. Particulars: protein: recombinant; tags: His6-SUMO, removed by SENP2; label: 5' 6-FAM; hairpin, 3-bp stem, 9-nt dT loop, 5' overhang 8 nt.
LcPol theta-pol Δloop2_b, sequence (chain, as listed by the source del555-598 | mutant): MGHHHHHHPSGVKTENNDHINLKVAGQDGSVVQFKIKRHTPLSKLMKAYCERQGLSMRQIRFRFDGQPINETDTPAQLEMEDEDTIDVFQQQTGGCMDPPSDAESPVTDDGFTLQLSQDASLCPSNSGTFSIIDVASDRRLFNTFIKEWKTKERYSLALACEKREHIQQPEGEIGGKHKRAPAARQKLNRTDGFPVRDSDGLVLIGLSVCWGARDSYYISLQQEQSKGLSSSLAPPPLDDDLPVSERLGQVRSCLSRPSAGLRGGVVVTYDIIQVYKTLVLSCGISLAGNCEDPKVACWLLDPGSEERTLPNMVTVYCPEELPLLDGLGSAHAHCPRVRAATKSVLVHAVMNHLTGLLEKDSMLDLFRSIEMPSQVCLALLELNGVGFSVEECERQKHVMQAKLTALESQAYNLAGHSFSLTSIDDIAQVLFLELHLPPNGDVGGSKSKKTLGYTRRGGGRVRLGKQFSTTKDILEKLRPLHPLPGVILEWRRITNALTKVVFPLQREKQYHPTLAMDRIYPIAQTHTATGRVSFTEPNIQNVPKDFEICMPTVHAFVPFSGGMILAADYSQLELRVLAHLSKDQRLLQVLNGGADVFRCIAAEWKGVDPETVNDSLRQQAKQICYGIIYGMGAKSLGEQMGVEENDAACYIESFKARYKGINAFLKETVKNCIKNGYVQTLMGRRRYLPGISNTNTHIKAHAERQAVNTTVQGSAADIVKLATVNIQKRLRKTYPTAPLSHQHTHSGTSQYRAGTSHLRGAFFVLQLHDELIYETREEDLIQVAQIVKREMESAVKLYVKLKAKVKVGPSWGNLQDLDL
The target of series [7] is T2, LcPol theta-pol WT. As to the kind of experiment: cryo-EM; dGTP, Mg2+; complex Ia, 2.4 A, 11 bp visible; EMSA: 10 nM HP [3,9], 25 mM HEPES pH 8.0, 100 mM KCl, 3 mM DTT, 100 ug/ml BSA, 10% glycerol, 2.5 mM EDTA, 0.01% NP40, on ice 20 min; 6% native PAGE, Tris-glycine; Hill fit. The settings on record: protein: recombinant; tags: His6-SUMO, removed by SENP2; primer/template, 20 bp, template 5' overhang 9 nt.

LcPol theta-pol Δloop1, sequence (chain, as listed by the source del443-461 | mutant): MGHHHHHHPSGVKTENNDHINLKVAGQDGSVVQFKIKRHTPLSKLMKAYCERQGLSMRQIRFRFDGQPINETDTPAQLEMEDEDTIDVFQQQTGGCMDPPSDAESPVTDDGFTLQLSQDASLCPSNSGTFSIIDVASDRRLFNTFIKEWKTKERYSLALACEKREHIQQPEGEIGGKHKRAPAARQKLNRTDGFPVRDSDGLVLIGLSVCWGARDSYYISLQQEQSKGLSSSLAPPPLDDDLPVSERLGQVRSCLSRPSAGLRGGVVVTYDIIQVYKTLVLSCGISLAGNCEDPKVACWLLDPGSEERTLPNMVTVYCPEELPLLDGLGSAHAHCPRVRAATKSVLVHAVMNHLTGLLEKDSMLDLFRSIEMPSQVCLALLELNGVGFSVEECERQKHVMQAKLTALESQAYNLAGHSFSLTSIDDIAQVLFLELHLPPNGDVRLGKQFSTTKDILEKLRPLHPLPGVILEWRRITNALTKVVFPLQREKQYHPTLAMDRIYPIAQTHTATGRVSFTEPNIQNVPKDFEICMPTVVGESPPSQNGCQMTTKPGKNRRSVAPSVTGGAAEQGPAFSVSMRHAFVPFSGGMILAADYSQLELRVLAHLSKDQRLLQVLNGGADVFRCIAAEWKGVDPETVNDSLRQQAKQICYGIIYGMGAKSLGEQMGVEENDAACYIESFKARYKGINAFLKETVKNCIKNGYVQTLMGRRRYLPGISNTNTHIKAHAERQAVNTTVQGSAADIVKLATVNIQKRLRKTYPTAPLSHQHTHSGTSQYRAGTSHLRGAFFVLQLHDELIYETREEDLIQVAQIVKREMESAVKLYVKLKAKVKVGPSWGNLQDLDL
LcPol theta-pol R2448A, sequence (chain, as listed by the source R598A | R2448A R2448A): as the sequence (chain, as listed by the source with the stated changes) above, with A449K, A450K, A456R, A457R, R598A counted along it

Regarding `Nc1ncnc2c1ncn2[C@H]1C[C@H](O)[C@@H](COP(=O)(O)OP(=O)(O)OP(=O)(O)O)O1` [dATP], the Km is 12 µM with LcPol θ-pol [1] and 157 µM in the series with LcPol θ-pol [2].

B1: HP [3,9] (structured_DNA)
DNA: TTTTTTTTGGCTTTTTTTTTGCC
B1: the Kd in [3] was 50 nM; with LcPol theta-pol Δloop1, 138 nM; in the series with LcPol theta-pol WT [4], 29 nM. Further, the binding result (in series [5]; in series [6]; with LcPol theta-pol Δloop2_a; with LcPol theta-pol R2448A; with LcPol theta-pol Δloop2_b) was “binds” throughout.

B2: 20/29 mer dsDNA, ddA-terminated primer (dsDNA)
DNA 1: TGCTGTGAGGCATCCGTAGA
DNA 2: GCAGTCAGCTCTACGGATGCCTCACAGCA
modifications: 3'-terminal dideoxy-A on primer
As for B2, the binding result in the series with LcPol theta-pol WT [7] is given as “binds”.
